This data set concerns the molecule itself. Kind of data set: self-assembly (homo-oligomerisation) by crystallisation on a substrate.

B1: Mutant of the C-terminal part and the histidine tag, SEQ ID NO: 18 (C-terminal part removed, histidine tag modified) (other)
chain: MHHHHHHGAMARKELSSLEELFRHYGVRYMTLTKMVEMGFTVNTLVNMTEQELDDVIRTLVDIYRVDLLVGEKYGIKSAVRAEKRR
In the case of B1, the binding result is recorded as “binds”.

B2: Mutant of the C-terminal part and histidine tag, SEQ ID NO: 26 (other)
chain: MHHHHHHGAMARKELSSLEELFRHYGVRYMTLTKMVEMGFTVNTLVNMTEQELDDVIRTLVDIYRVDLLVGEKYGIKSAVRAEKRRLDELERKKGGSC
With B2, the binding result is “binds”.

B3: Mutant with a self-reducing sequence at the C-terminal part, SEQ ID NO: 29 (C-terminal part and histidine tag modified) (other)
chain: MKHHHHHHPGAMARKELSSLEELFRHYGVRYMTLTKMVEMGFTVNTLVNMTEQELDDVIRTLVDIYRVDLLVGEKYGIKSAVRAEKRRLDELERKKGGSTGTSVLIATPGV
Consider B3, for which the binding result is on record as “binds”.

B4: Mutant of the C-terminal part and histidine tag, SEQ ID NO: 27 (other)
chain: MHHHHHHGAMARKELSSLEELFRHYGVRYMTLTKMVEMGFTVNTLVNMTEQELDDVIRTLVDIYRVDLLVGEKYGIKSAVRAEKRRLDELERKKGGSHHHHHH
Turning to B4, the binding result is “binds”.

B5: Mutant with a self-reducing sequence at the C-terminal part, SEQ ID NO: 31 (C-terminal part and histidine tag modified) (other)
chain: MKHHHHHHPGAMARKELSSLEELFRHYGVRYMTLTKMVEMGFTVNTLVNMTEQELDDVIRTLVDIYRVDLLVGEKYGIKSAVRAEKRRLDELERKKGGSWAGAKRLVLRRE
Take B5: the binding result is recorded as “binds”.

The values are drawn from US20220380486A1 (COMMISSARIAT A L ENERGIE ATOMIQUE ET AUX ENERGIES …, published 2022).
